Legend:
Assay type in all cases: in vivo
EAE in Lewis rats [1] = assay: Prevention of EAE by pretreatment before encephalitogenic challenge
EAE in SJL mice = assay: Treatment of passively induced EAE and second active challenge in SJL mice; conditions: murine IFNβ/PLP139-151 fusion protein; 2 nanomoles s.c. days 12, 14, 16
Protocol: FIG. 8. […] Shown are the time-courses of EAE (A) and the percent maximal weight (B) from example 4.
On day 0, mice were passively challenged with activated, encephalitogenic T cells specific for the PLP139-151 epitope. […] On day 12, three groups of mice were matched for clinical severity. On days 12, 14, and 16, mice were treated with the IFNβ-NAg fusion protein (2 nanomoles), a synthetic PLP139-151 peptide (2 nanomoles), or saline. Treatments were given by subcutaneous injections of proteins or peptides in saline. On day 24, mice were actively challenged to induce a second bout of EAE by challenge with 200 micrograms of PLP139-151 in Complete Freund's Adjuvant. […] Furthermore, the fusion protein promoted a tolerogenic effect that ameliorated the subsequent bout of EAE (FIG. 8A). These observations support the concept that the IFNβ-NAg fusion protein may have clinical activities conducive for the treatment of autoimmune demyelinating disease of the central nervous system.

EAE in Lewis rats [2] = assay: Treatment of ongoing EAE after disease onset
[3] = Table 3, baculovirus-derived, 1 nmole s.c. days −21, −14, −7, challenge day 0, severe = EP or P
[4] = Table 3, baculovirus-derived, 1 nmole s.c. in saline days −21, −14, −7, challenge 50 ug DHFR-NAg in CFA day 0
[5] = Table 4 Exp. 1 & 2 combined, HEK293-derived, 1 nmole days −21, −14, −7, challenge day 0
[6] = Table 4 Exp. 1, HEK293-derived, 1 nmole in saline days −21, −14, −7, challenge DHFR-NAg in CFA day 0
[7] = Table 4 Exp. 2, HEK293-derived, 1 nmole in saline days −21, −14, −7, challenge DHFR-NAg in CFA day 0
[8] = Table 5 Exp 1-2 compiled, 1 nmole s.c. days −21, −14, −7 (IFNβ + NAg: separate injections), challenge day 0
[9] = Table 5 Exp 1, 1 nmole s.c. in saline days −21, −14, −7 (IFNβ + NAg: separate injections <0.5 cm apart), challenge DHFR-NAg in CFA day 0
[10] = Table 5 Exp 2, 1 nmole s.c. in saline days −21, −14, −7 (IFNβ + NAg: separate injections <0.5 cm apart), challenge DHFR-NAg in CFA day 0
[11] = Table 6 Experiment 1, s.c. day 9 (1 nmole), day 10 (1 nmole), day 12 (0.5 nmole) after DHFR-NAg in CFA day 0
[12] = Table 6 Experiment 2, 1 nmole s.c. on days 9, 10, 12, and 14 after DHFR-NAg in CFA day 0
[13] = Table 6 Experiments 1 & 2 compiled, treatment from day 9 after onset
[14] = Table 7 Experiment 1, 1 nmole s.c. days 10, 11, and 13, severe EAE = scores from 1.0 to 3.0
[15] = Table 7 Experiment 1, 1 nmole s.c. in saline days 10, 11, and 13, IFNβ + NAg as mixture
[16] = Table 7 Experiment 2, 1 nmole s.c. days 9, 10, 12, and 14, severe EAE = scores from 1.0 to 3.0
[17] = Table 7 Experiment 2, 1 nmole s.c. in saline days 9, 10, 12, and 14, IFNβ + NAg as mixture
[18] = Table 7 Experiment 3, 1 nmole s.c. days 9, 10, and 12, severe EAE = scores from 1.0 to 3.0
[19] = Table 7 Experiment 3, 1 nmole s.c. in saline days 9, 10, and 12, IFNβ + NAg as mixture
[20] = Table 7 Experiments 1-3 compiled, 1 nmole s.c. after onset
[21] = Table 7 Experiments 1-3 compiled, severe EAE = scores from 1.0 to 3.0

B1: IFNβ-NAg: Fusion protein: rat IFNβ, enterokinase linker (GDDDDKG), encephalitogenic 73-87 peptide of guinea pig MBP, C-terminal 6-histidine tag (protein)
chain: IDYKQLQFRQSTSIRTCQKLLRQLNGRLNLSYRTDFKIPMEVMHPSQMEKSYTAFAIQVMLQNVFLVFRSNFSSTGWNETIVESLLDELHQQTELLEIILKEKQEERLTWVTSTTTLGLKSYYWRVQRYLKDKKYNSYAWMVVRAEVFRNFSIILRLNRNFQNGDDDDKGPQKSQRSQDENPVVHHHHHH
Incidence of severe EAE (EAE in Lewis rats [1]; [3]): 4 of 9 | Mean # days with severe EAE (EAE in Lewis rats [1]; [3]): 1.0 ± 1.3 days | Incidence of EAE (EAE in Lewis rats [1]; [4]): 9 of 9 | Mean cumulative score (EAE in Lewis rats [1]; [4]): 3.4 ± 2.7 | Mean maximal score (EAE in Lewis rats [1]; [4]): 1.4 ± 0.9 | Median cumulative score (EAE in Lewis rats [1]; [4]): 2.5 | Median maximal score (EAE in Lewis rats [1]; [4]): 1.0 | Incidence of EAE (EAE in Lewis rats [1]; [5]): 8 of 8 | Incidence of severe EAE (EAE in Lewis rats [1]; [5]): 4 of 8 | Mean # days with severe EAE (EAE in Lewis rats [1]; [5]): 0.8 ± 1.0 days | Mean cumulative score (EAE in Lewis rats [1]; [5]): 7.0 ± 5.3 | Mean maximal score (EAE in Lewis rats [1]; [5]): 1.5 ± 0.9 | Median cumulative score (EAE in Lewis rats [1]; [5]): 5.9 | Median maximal score (EAE in Lewis rats [1]; [5]): 1.5 | Mean # days with severe EAE (EAE in Lewis rats [1]; Table 4 Exp. 1, HEK293-derived, 1 nmole days −21, −14, −7, challenge day 0): 0.6 ± 1.3 days | Incidence of severe EAE (EAE in Lewis rats [1]; Table 4 Exp. 1, HEK293-derived, 1 nmole days −21, −14, −7, challenge day 0, severe = partial or full hindlimb paralysis): 1 of 4 | Incidence of EAE (EAE in Lewis rats [1]; [6]): 4 of 4 | Mean cumulative score (EAE in Lewis rats [1]; [6]): 6.3 ± 6.7 | Mean maximal score (EAE in Lewis rats [1]; [6]): 1.3 ± 1.2 | Median cumulative score (EAE in Lewis rats [1]; [6]): 3.9 | Median maximal score (EAE in Lewis rats [1]; [6]): 1.0 | Mean # days with severe EAE (EAE in Lewis rats [1]; Table 4 Exp. 2, HEK293-derived, 1 nmole days −21, −14, −7, challenge day 0): 1.0 ± 0.7 days | Incidence of severe EAE (EAE in Lewis rats [1]; Table 4 Exp. 2, HEK293-derived, 1 nmole days −21, −14, −7, challenge day 0, severe = partial or full hindlimb paralysis): 3 of 4 | Incidence of EAE (EAE in Lewis rats [1]; [7]): 4 of 4 | Mean cumulative score (EAE in Lewis rats [1]; [7]): 7.8 ± 4.3 | Mean maximal score (EAE in Lewis rats [1]; [7]): 1.6 ± 0.8 | Median cumulative score (EAE in Lewis rats [1]; [7]): 8.9 | Median maximal score (EAE in Lewis rats [1]; [7]): 2.0 | % mean maximal weight loss (EAE in Lewis rats [1]; [8]): 12.6 ± 3.6% | Incidence of EAE (EAE in Lewis rats [1]; [8]): 14 of 14 | Incidence of severe EAE (EAE in Lewis rats [1]; [8]): 7 of 14 | Mean # days with severe EAE (EAE in Lewis rats [1]; [8]): 1.0 ± 1.2 days | Mean cum. score (EAE in Lewis rats [1]; [8]): 7.6 ± 6.2 | Mean maximal score (EAE in Lewis rats [1]; [8]): 1.5 ± 1.1 | Median cum. score (EAE in Lewis rats [1]; [8]): 5.5 | Median maximal score (EAE in Lewis rats [1]; [8]): 1.5 | % mean maximal weight loss (EAE in Lewis rats [1]; [9]): 14.8 ± 1.9% | Incidence of EAE (EAE in Lewis rats [1]; [9]): 7 of 7 | Incidence of severe EAE (EAE in Lewis rats [1]; [9]): 4 of 7 | Mean # days with severe EAE (EAE in Lewis rats [1]; [9]): 1.1 ± 1.2 days | Mean cum. score (EAE in Lewis rats [1]; [9]): 8.0 ± 6.3 | Mean maximal score (EAE in Lewis rats [1]; [9]): 1.5 ± 1.0 | Median cum. score (EAE in Lewis rats [1]; [9]): 7.0 | Median maximal score (EAE in Lewis rats [1]; [9]): 2.0 | % mean maximal weight loss (EAE in Lewis rats [1]; [10]): 10.5 ± 3.6% | Incidence of EAE (EAE in Lewis rats [1]; [10]): 7 of 7 | Incidence of severe EAE (EAE in Lewis rats [1]; [10]): 3 of 7 | Mean # days with severe EAE (EAE in Lewis rats [1]; [10]): 0.9 ± 1.2 days | Mean cum. score (EAE in Lewis rats [1]; [10]): 7.2 ± 6.4 | Mean maximal score (EAE in Lewis rats [1]; [10]): 1.5 ± 1.4 | Median cum. score (EAE in Lewis rats [1]; [10]): 3.0 | Median maximal score (EAE in Lewis rats [1]; [10]): 0.5 | day of disease onset (EAE in Lewis rats [1]; baculovirus-derived, pretreatment days −21, −14, −7 (not shown)): did not significantly modulate | EAE-associated cachexia (percent maximal weight) (EAE in SJL mice): acutely reversed EAE-associated cachexia | % mean maximal weight loss (EAE in Lewis rats [2]; [11]): 3.8 ± 2.0% | Incidence of severe EAE (EAE in Lewis rats [2]; [11]): 1 of 6 | Mean # days with severe EAE (EAE in Lewis rats [2]; [11]): 0.1 ± 0.2 days | Mean cum. score (EAE in Lewis rats [2]; [11]): 3.4 ± 2.1 | Mean maximal score (EAE in Lewis rats [2]; [11]): 0.7 ± 0.6 | Median cum. score (EAE in Lewis rats [2]; [11]): 3.5 | Median maximal score (EAE in Lewis rats [2]; [11]): 0.5 | % mean maximal weight loss (EAE in Lewis rats [2]; [12]): 6.4 ± 5.0% | Incidence of severe EAE (EAE in Lewis rats [2]; [12]): 1 of 5 | Mean # days with severe EAE (EAE in Lewis rats [2]; [12]): 0.1 ± 0.2 days | Mean cum. score (EAE in Lewis rats [2]; [12]): 2.7 ± 1.5 | Mean maximal score (EAE in Lewis rats [2]; [12]): 0.7 ± 0.8 | Median cum. score (EAE in Lewis rats [2]; [12]): 2.3 | Median maximal score (EAE in Lewis rats [2]; [12]): 0.3 | % mean maximal weight loss (EAE in Lewis rats [2]; [13]): 5.0 ± 3.7% | Incidence of severe EAE (EAE in Lewis rats [2]; [13]): 2 of 11 | Mean # days with severe EAE (EAE in Lewis rats [2]; [13]): 0.1 ± 0.2 days | Mean cum. score (EAE in Lewis rats [2]; [13]): 3.1 ± 1.8 | Mean maximal score (EAE in Lewis rats [2]; [13]): 0.7 ± 0.7 | Median cum. score (EAE in Lewis rats [2]; [13]): 2.8 | Median maximal score (EAE in Lewis rats [2]; [13]): 0.5 | Incidence of severe EAE (EAE in Lewis rats [2]; [14]): 0 of 5 | Mean # days with severe EAE (A-P) (EAE in Lewis rats [2]; [14]): 0.3 ± 0.7 days | Mean cum. score (EAE in Lewis rats [2]; [15]): 1.7 ± 0.9 | Mean maximal score (EAE in Lewis rats [2]; [15]): 0.4 ± 0.1 | Median cum. score (EAE in Lewis rats [2]; [15]): 1.8 | Median maximal score (EAE in Lewis rats [2]; [15]): 0.3 | Incidence of severe EAE (EAE in Lewis rats [2]; [16]): 1 of 6 | Mean # days with severe EAE (A-P) (EAE in Lewis rats [2]; [16]): 0.1 ± 0.2 days | Mean cum. score (EAE in Lewis rats [2]; [17]): 1.0 ± 0.7 | Mean maximal score (EAE in Lewis rats [2]; [17]): 0.6 ± 0.7 | Median cum. score (EAE in Lewis rats [2]; [17]): 0.8 | Median maximal score (EAE in Lewis rats [2]; [17]): 0.4 | Incidence of severe EAE (EAE in Lewis rats [2]; [18]): 0 of 7 | Mean # days with severe EAE (A-P) (EAE in Lewis rats [2]; [18]): 0.0 ± 0.0 days | Mean cum. score (EAE in Lewis rats [2]; [19]): 1.7 ± 0.6 | Mean maximal score (EAE in Lewis rats [2]; [19]): 0.4 ± 0.1 | Median cum. score (EAE in Lewis rats [2]; [19]): 1.8 | Median maximal score (EAE in Lewis rats [2]; [19]): 0.3 | Mean cum. score (EAE in Lewis rats [2]; [20]): 1.4 ± 0.8 | Mean maximal score (EAE in Lewis rats [2]; [20]): 0.4 ± 0.4 | Median cum. score (EAE in Lewis rats [2]; [20]): 1.4 | Median maximal score (EAE in Lewis rats [2]; [20]): 0.3 | Incidence of severe EAE (EAE in Lewis rats [2]; [21]): 1 of 18 | Mean # days with severe EAE (A-P) (EAE in Lewis rats [2]; [21]): 0.1 ± 0.4 days | EAE-associated weight loss, mean (EAE in Lewis rats [2]; experiment 1 of Table 7): 9.7% | EAE-associated weight loss, mean (EAE in Lewis rats [2]; experiment 2 of Table 7): 8.7% | EAE-associated weight loss, mean (EAE in Lewis rats [2]; experiment 3 of Table 7): 8.5%
